For experiment [1], the target named is T1, rhesus monkey NPY Y4 receptor protein of SEQ ID NO: 4 (encoded by the nucleotide sequence of SEQ ID NO: 3) (rhesus monkey, UniProt P0DQD5 1-375 (human entry)).
T1 construct: 375 residues; also called rhesus monkey Y4 receptor
T1 chain: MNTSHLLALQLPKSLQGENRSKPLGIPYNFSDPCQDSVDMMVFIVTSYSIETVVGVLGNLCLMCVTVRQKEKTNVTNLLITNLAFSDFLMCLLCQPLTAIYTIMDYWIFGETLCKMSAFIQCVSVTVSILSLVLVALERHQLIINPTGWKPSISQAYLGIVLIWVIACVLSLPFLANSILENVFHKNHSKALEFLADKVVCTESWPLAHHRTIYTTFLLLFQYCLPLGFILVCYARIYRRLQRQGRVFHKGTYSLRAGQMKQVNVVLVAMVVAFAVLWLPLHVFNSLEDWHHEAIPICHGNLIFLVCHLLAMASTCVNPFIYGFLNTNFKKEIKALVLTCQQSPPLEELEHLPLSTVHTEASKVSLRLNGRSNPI
Description: competition against 59 pM [125I]human PP, COS-7 membrane fractions, filter binding. The method, then:
(§1) The membrane fraction obtained in this manner was incubated for 2 hours at 25° C. together with 31 pM [¹²⁵I]human PP in 25 mM Tris buffer (pH 7.4) containing 10 mM MgCl₂, 1 mM phenylmethylsulfonyl fluoride, 0.1% bacitracin and 0.5% bovine serum albumin, and then filtered through a polyethyleneimine-treated UniFilter-96 GF/C (Perkin-Elmer). After rinsing with 5 mM Tris buffer (pH 7.4) containing 0.3% bovine serum albumin and drying, MicroScint0 (Perkin-Elmer) was added, and a TopCount HTS (Packard) was used to measure the residual radioactivity on the filter. The non-specific binding was measured in the presence of 1 μM human PP.
(§2) Also, with the membrane fraction concentration set to 0.155 and 0.14 mg protein/ml and the [¹²⁵I]human PP concentration set to 59 pM, human PP, human NPY and swine PYY were added to the reaction solution at different concentrations, and a Prism Version 4.00 (GraphPad) was used to determine the 50% inhibitory concentration (IC₅₀ value) from the inhibition curve for each peptide against specific [¹²⁵I]human PP binding (FIGS. 3 and 4).

In experiment [2] the target is T2, rhesus monkey NPY Y4 receptor protein of SEQ ID NO: 2 (encoded by the nucleotide sequence of SEQ ID NO: 1) (rhesus monkey, UniProt P0DQD5 1-375 (human entry)).
T2 construct: 375 residues; also called rhesus monkey Y4 receptor
T2 chain: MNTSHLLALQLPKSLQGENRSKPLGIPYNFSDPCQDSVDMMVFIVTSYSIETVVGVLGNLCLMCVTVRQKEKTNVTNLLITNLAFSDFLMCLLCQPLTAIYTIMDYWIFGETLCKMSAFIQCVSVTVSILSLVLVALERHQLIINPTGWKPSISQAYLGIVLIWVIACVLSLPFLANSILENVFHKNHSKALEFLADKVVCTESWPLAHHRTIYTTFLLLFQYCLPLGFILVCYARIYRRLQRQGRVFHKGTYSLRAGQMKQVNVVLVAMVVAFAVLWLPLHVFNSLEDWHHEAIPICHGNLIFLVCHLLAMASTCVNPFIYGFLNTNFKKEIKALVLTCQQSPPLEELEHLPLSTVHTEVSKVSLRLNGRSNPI
The experiment is described as above. The method, then:
as §1, §2

The target in experiment [3] is T1, rhesus monkey NPY Y4 receptor protein …. Nature of the experiment: cell-based or functional assay.
Experiment [4] addresses T2, rhesus monkey NPY Y4 receptor protein …. Description: cell-based or functional assay.

Where no end group is shown, it is not given here.

Data on three molecules can be found in US20070083037A1 (published 2007).

B1: human Neuropeptide-Y (peptide)
peptide: not shown
notes: mature; also called human NPY; NPY
With B1, the IC50 in experiment [1] came out at 97 nM; in experiment [2], 100 nM.
With APLEPVYPGDNATPEQMAQYAADLRRYINMLTRPRY (peptide, UniProt P01298 30-65, looked up, ends and bridges not checked, mature; also called human PP; PP) [human Pancreatic Polypeptide], the figures for the “EC50 of the increase in fluorescent intensity (intracellular calcium ion concentration, Fluo-4, FLIPR) in CHO-K1 cells with G alpha 15” value in experiment [3] and in experiment [4] were 4.8 nM and 1.8 nM, respectively. The IC50 in experiment [1] is 0.17 nM; in experiment [2], 0.24 nM.

B2: swine Peptide YY (peptide)
peptide: not shown
notes: mature; also called swine PYY; PYY
For the molecule B2, the IC50 in experiment [1] is 9.9 nM; in experiment [2], 10 nM.

The IC50 is the concentration needed to halve the response being measured.
